From paper PMC9982066, “Inhibition of Ehrlichia chaffeensis infection by cell-permeable macrocyclic peptides that bind type IV secretion effector Etf-1” (PNAS Nexus, 2023)
Starred links: 1 amine or outer side, 2 acyl side, 3 side chain; linkers in the order of their positions; H or OH if unused. Positions of bridges follow the written chain, without caps; N, C: chain ends. Non-standard residues stand in square brackets, D forms with d. No end group written: not given here. Trimesoyl = O=C(c1cc(C(=O)[*:2])cc(C(=O)[*:3])c1)[*:1]; Phe(3,4-Cl2) = N[C@@H](Cc1ccc(Cl)c(Cl)c1)C(=O)O; Phe(4-CF3) = N[C@@H](Cc1ccc(C(F)(F)F)cc1)C(=O)O; Phe(3-Cl) = N[C@@H](Cc1cccc(Cl)c1)C(=O)O; Phe(4-Cl) = N[C@@H](Cc1ccc(Cl)cc1)C(=O)O; Phe(4-F) = N[C@@H](Cc1ccc(F)cc1)C(=O)O; Phe(4-Me) = Cc1ccc(C[C@H](N)C(=O)O)cc1; 2Nal = N[C@@H](Cc1ccc2ccccc2c1)C(=O)O; d1Nal = N[C@H](Cc1cccc2ccccc12)C(=O)O; d2Nal = N[C@H](Cc1ccc2ccccc2c1)C(=O)O; βAsp = O=C(O)[C@H](CC(=O)[*:2])N[*:1]; hPhe = N[C@@H](CCc1ccccc1)C(=O)O; Phg = N[C@H](C(=O)O)c1ccccc1; Nle = CCCC[C@H](N)C(=O)O; Orn = NCCC[C@H](N)C(=O)O; Dap = NC[C@H](N)C(=O)O; TMA = not defined here; βAla = NCCC(=O)O

B1: FAM-labeled macrocyclic peptide B7-131-4 (peptide)
chain: Y[Phe(4-F)]D[Phg][dY][βAsp][dL][Dap][Phe(4-Cl)][d2Nal][dR]R[dR]R[Dap]-{βAla-βAla-Lys(FAM)}
modifications: linker 8-15 via TMA; reading uncertain; also: TMA third attachment point not given here
B2: FAM-labeled macrocyclic peptide B7-133-3 (peptide)
chain: Y[dF]D[Nle][dN][dL][Dap][Phe(4-Cl)][d2Nal][dR]R[dR]R[Dap]-{βAla-βAla-Lys(FAM)}
modifications: linker 7-14 via TMA; reading uncertain; also: TMA third attachment point not given here
B3: FAM-labeled macrocyclic peptide B7-131-1 (peptide)
chain: Y[dN][d2Nal]S[Phg][dL][dL][Dap][Phe(4-Cl)][d2Nal][dR]R[dR]R[Dap]-{βAla-βAla-Lys(FAM)}
modifications: linker 8-15 via TMA; reading uncertain; also: TMA third attachment point not given here
B4: FAM-labeled macrocyclic peptide B7 (peptide)
chain: YHQ[dP]S[dL][Dap]F[d2Nal][dR]R[dR]R[Dap]-{βAla-βAla-Lys(FAM)}
modifications: linker 7-14 via TMA; reading uncertain; also: TMA third attachment point not given here
B5: FAM-labeled macrocyclic peptide B7-133-8 (peptide)
chain: Y[d2Nal]Q[D‑beta‑homoalanine][dP][dL][Dap][Phe(4-Cl)][d2Nal][dR]R[dR]R[Dap]-{βAla-βAla-Lys(FAM)}
modifications: linker 7-14 via TMA; reading uncertain; also: TMA third attachment point not given here
B6: FAM-labeled macrocyclic peptide B7-131-5 (peptide)
chain: YH[dP][d2Nal]DA[dL][Dap][Phe(4-Cl)][d2Nal][dR]R[dR]R[Dap]-{βAla-βAla-Lys(FAM)}
modifications: linker 8-15 via TMA; reading uncertain; also: TMA third attachment point not given here
B7: FAM-labeled macrocyclic peptide B7-133-9 (peptide)
chain: Y[dV][dL][dY][Phe(4-F)][dL][Dap][Phe(4-Cl)][d2Nal][dR]R[dR]R[Dap]-{βAla-βAla-Lys(FAM)}
modifications: linker 7-14 via TMA; reading uncertain; also: TMA third attachment point not given here
B8: macrocyclic peptide B7-5, FAM-labelled (peptide)
chain: YAQ[dP]S[dL][Dap]F[d2Nal][dR]R[dR]R[Dap]-{βAla-βAla-Lys(FAM)}
modifications: linker N-7-14 via Trimesoyl; not fully specified (N-terminus)
B9: macrocyclic peptide B7-12, FAM-labelled (peptide)
chain: YHQ[dP]S[dL][Dap]F[d2Nal][dR]R[dR]A[Dap]-{βAla-βAla-Lys(FAM)}
modifications: linker N-7-14 via Trimesoyl; not fully specified (N-terminus)
B10: macrocyclic peptide B7-19, FAM-labelled (peptide)
chain: YHQ[dP]S[dL][Dap][Phe(3,4-Cl2)][d2Nal][dR]R[dR]R[Dap]-{βAla-βAla-Lys(FAM)}
modifications: linker N-7-14 via Trimesoyl; not fully specified (N-terminus)
B11: macrocyclic peptide B7-17, FAM-labelled (peptide)
chain: YHQ[dP]S[dL][Dap][Phe(3-Cl)][d2Nal][dR]R[dR]R[Dap]-{βAla-βAla-Lys(FAM)}
modifications: linker N-7-14 via Trimesoyl; not fully specified (N-terminus)
B12: macrocyclic peptide B7-4, FAM-labelled (peptide)
chain: YHA[dP]S[dL][Dap]F[d2Nal][dR]R[dR]R[Dap]-{βAla-βAla-Lys(FAM)}
modifications: linker N-7-14 via Trimesoyl; not fully specified (N-terminus)
B13: macrocyclic peptide B7-18, FAM-labelled (peptide)
chain: YHQ[dP]S[dL][Dap][Phe(4-F)][d2Nal][dR]R[dR]R[Dap]-{βAla-βAla-Lys(FAM)}
modifications: linker N-7-14 via Trimesoyl; not fully specified (N-terminus)
B14: macrocyclic peptide B7-3, FAM-labelled (peptide)
chain: YHQ[dA]S[dL][Dap]F[d2Nal][dR]R[dR]R[Dap]-{βAla-βAla-Lys(FAM)}
modifications: linker N-7-14 via Trimesoyl; not fully specified (N-terminus)
B15: macrocyclic peptide B7-15, FAM-labelled (peptide)
chain: YHQ[dP]S[dL][Dap][hPhe][d2Nal][dR]R[dR]R[Dap]-{βAla-βAla-Lys(FAM)}
modifications: linker N-7-14 via Trimesoyl; not fully specified (N-terminus)
B16: macrocyclic peptide B7-2, FAM-labelled (peptide)
chain: YHQ[dP]A[dL][Dap]F[d2Nal][dR]R[dR]R[Dap]-{βAla-βAla-Lys(FAM)}
modifications: linker N-7-14 via Trimesoyl; not fully specified (N-terminus)
B17: macrocyclic peptide B7-6, FAM-labelled (peptide)
chain: AHQ[dP]S[dL][Dap]F[d2Nal][dR]R[dR]R[Dap]
modifications: linker 7-14 via TMA; not fully specified (C-terminus); reading uncertain
B18: macrocyclic peptide B7-14, FAM-labelled (peptide)
chain: YHQ[dP]S[dL][Dap][Phg][d2Nal][dR]R[dR]R[Dap]-{βAla-βAla-Lys(FAM)}
modifications: linker N-7-14 via Trimesoyl; not fully specified (N-terminus)
B19: macrocyclic peptide B7-23, FAM-labelled (peptide)
chain: YHQ[dP]S[dL][Dap][Phe(4-Cl)][d1Nal][dR]R[dR]R[Dap]-{βAla-βAla-Lys(FAM)}
modifications: linker N-7-14 via Trimesoyl; not fully specified (N-terminus)
B20: macrocyclic peptide B7-10, FAM-labelled (peptide)
chain: YHQ[dP]S[dL][Dap]F[d2Nal][dR]A[dR]R[Dap]-{βAla-βAla-Lys(FAM)}
modifications: linker 7-14 via TMA; reading uncertain; also: TMA third attachment point not given here
B21: macrocyclic peptide B7-20, FAM-labelled (peptide)
chain: YHQ[dP]S[dL][Dap][Phe(4-CF3)][d2Nal][dR]R[dR]R[Dap]-{βAla-βAla-Lys(FAM)}
modifications: linker N-7-14 via Trimesoyl; not fully specified (N-terminus)
B22: macrocyclic peptide B7-13, FAM-labelled (peptide)
chain: YHQ[dP]S[dL][Dap][Phe(4-Me)][d2Nal][dR]R[dR]R[Dap]-{βAla-βAla-Lys(FAM)}
modifications: linker N-7-14 via Trimesoyl; not fully specified (N-terminus)
B23: macrocyclic peptide B7-1, FAM-labelled (peptide)
chain: YHQ[dP]S[dA][Dap]F[d2Nal][dR]R[dR]R[Dap]-{βAla-βAla-Lys(FAM)}
modifications: linker 7-14 via TMA; reading uncertain; also: TMA third attachment point not given here
B24: macrocyclic peptide B7-11, FAM-labelled (peptide)
chain: YHQ[dP]S[dL][Dap]F[d2Nal][dR]R[dA]R[Dap]-{βAla-βAla-Lys(FAM)}
modifications: linker 7-14 via TMA; reading uncertain; also: TMA third attachment point not given here
B25: macrocyclic peptide B7-21, FAM-labelled (peptide)
chain: YHQ[dP]S[dL][Dap][2Nal][d2Nal][dR]R[dR]R[Dap]-{βAla-βAla-Lys(FAM)}
modifications: linker N-7-14 via Trimesoyl; not fully specified (N-terminus)
B26: macrocyclic peptide B7-22, FAM-labelled (peptide)
chain: YHQ[dP]S[dL][Dap][Phe(4-Cl)][3‑(3-benzothienyl)‑D‑Ala][dR]R[dR]R[Dap]-{βAla-βAla-Lys(FAM)}
modifications: linker N-7-14 via Trimesoyl; not fully specified (N-terminus)
B27: macrocyclic peptide B7-9, FAM-labelled (peptide)
chain: YHQ[dP]S[dL][Dap]F[d2Nal][dA]R[dR]R[Dap]
modifications: linker 7-14 via TMA; not fully specified (C-terminus); reading uncertain
B28: macrocyclic peptide B13, FAM-labelled (peptide)
chain: [dE]H[dF][dE]HA[Dap][dF][2Nal]R[dR]R[Dap]-{βAla-βAla-Lys(FAM)}
modifications: linker 7-13 via TMA; reading uncertain; also: TMA third attachment point not given here
B29: macrocyclic peptide B17, FAM-labelled (peptide)
chain: [Phg][dF]GDY[Dap]F[d2Nal][dR]R[dR]R[Dap]-{βAla-βAla-Lys(FAM)}
modifications: linker 6-13 via TMA; reading uncertain; also: TMA third attachment point not given here
B30: macrocyclic peptide B22, FAM-labelled (peptide)
chain: [dV][Orn][dN]H[dA][Dap]F[d2Nal][dR]R[dR]R[Dap]-{βAla-βAla-Lys(FAM)}
modifications: linker 6-13 via TMA; reading uncertain; also: TMA third attachment point not given here

Molecular target: Ehrlichia translocated factor-1 (Etf-1), recombinant 6×His-Etf-1 fusion protein (E. chaffeensis, UniProt Q2GG12 1-380)
Test: fluorescence polarisation
Conditions: both partners purified

Binder	Kd [µM]
B1	~1.5
B2	2.4 ± 0.3
B3	1.7 ± 0.2
B4	6.5 ± 0.7
B5	1.3 ± 0.1
B6	2.9 ± 0.4
B7	2.2 ± 0.3

Molecular target: T1, Ehrlichia translocated factor-1 (Etf-1) (Ehrlichia chaffeensis, UniProt Q2GG12 1-380)
Test: fluorescence polarisation
Conditions: both partners purified

Binder	Kd [µM]
B8	10.9 ± 1.5
B9	15 ± 2
B10	1.6 ± 0.2
B11	3.4 ± 0.4
B12	7.4 ± 0.9
B13	3 ± 0.5
B14	5.8 ± 0.5
B15	3.4 ± 0.6
B16	6.7 ± 0.8
B17	11.9 ± 3.4
B18	5.8 ± 0.9
B19	4.7 ± 0.5
B20	30 ± 3
B21	1.8 ± 0.2
B22	6.3 ± 0.8
B23	18.9 ± 6.9
B24	28 ± 6
B25	1.9 ± 0.2
B26	5.7 ± 0.9
B27	30 ± 7

Molecular target: T1, Ehrlichia translocated factor-1 (Etf-1)
Test: fluorescence polarisation
Conditions: both partners purified
Remark: another data set of the same source

Binder	Kd [µM]
B28	> 25
B29	> 25
B30	> 25
